Test results from publication PMC11602162.

Biological target: N-NTD (SARS-CoV-2 (Wuhan-Hu-1)) (UniProt P0DTC9)
Assay: DSF
Conditions: 10 mM Tris-HCl pH 7.4, 150 mM NaCl, 1 mM MgCl2, BLI with 0.05% Tween-20

Sequence: TCGGACATCGGAATGTCTGA [A58-20 T6-to-A]
- binding signal: -0.5 C (Tm shift)
